Source: publication PMC5500003

Assays:
[1] = test system: tau 4R2N (Homo sapiens), P10636-8; assay: EMSA; conditions: Hill coefficient 2.8; 26 nM tRNA, 0.5 mM MgCl2, 0.5 mM EDTA, 37 C; native tRNA modifications likely, not described; EMSA: 100 mM sodium acetate pH 7.0, 0.5 mM EDTA, 0.5 mM MgCl2, 0.01% IGEPAL CA-630, RNase inhibitor, 37 C 10 min, TBE 8% gel; ITC: 20 mM ammonium acetate pH 7 …
[2] = test system: tau 4R2N (Homo sapiens), P10636-8; assay: ITC; conditions: n = 0.52 tRNA per tau; 20 mM ammonium acetate pH 7; EMSA: 100 mM sodium acetate pH 7.0, 0.5 mM EDTA, 0.5 mM MgCl2, 0.01% IGEPAL CA-630, RNase inhibitor, 37 C 10 min, TBE 8% gel; ITC: 20 mM ammonium acetate pH 7 …
tau K18 (Homo sapiens) = assay: ITC; conditions: n = 0.49 tRNA per tau; 20 mM ammonium acetate pH 7; EMSA: 100 mM sodium acetate pH 7.0, 0.5 mM EDTA, 0.5 mM MgCl2, 0.01% IGEPAL CA-630, RNase inhibitor, 37 C 10 min, TBE 8% gel; ITC: 20 mM ammonium acetate pH 7 …

Chain of tau 4R2N (Homo sapiens), P10636-8 (P10636 other isoform, or with tags, fused parts or gaps): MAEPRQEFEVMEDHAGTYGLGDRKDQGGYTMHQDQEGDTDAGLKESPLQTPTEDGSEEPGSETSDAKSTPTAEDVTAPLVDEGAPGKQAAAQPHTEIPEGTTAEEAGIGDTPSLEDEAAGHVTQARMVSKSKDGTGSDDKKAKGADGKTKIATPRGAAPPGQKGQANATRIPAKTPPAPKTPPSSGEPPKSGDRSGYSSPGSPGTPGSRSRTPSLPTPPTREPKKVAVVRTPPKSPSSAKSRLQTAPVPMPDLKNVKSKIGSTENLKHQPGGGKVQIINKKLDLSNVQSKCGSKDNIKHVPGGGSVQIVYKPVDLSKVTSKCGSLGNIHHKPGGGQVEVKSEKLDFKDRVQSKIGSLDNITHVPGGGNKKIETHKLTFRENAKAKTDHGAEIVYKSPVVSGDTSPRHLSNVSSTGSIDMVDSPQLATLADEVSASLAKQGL

Substance | Kd [1] [nM] | Kd [2] [nM] | Kd (tau K18 (Homo sapiens)) [nM]
tRNALys, unacetylated | 460 |  | 
yeast tRNA (bulk) |  | 735 | 372
